From the supplement of paper PMC10266784

B1: library; numbered along this chain (parent)
chain: MAAAAAAAAEQQSSNGPVKKSMREKAVERRSVNKEHNSNFKAGYIPIDEDRLHKTGLRGRKGNLAICVIILLFILAVINLIITLVIWAVIRIGPNGCDSMEFHESGLLRFKQVSDMGVIHPLYKSTVGGRRNENLVITGNNQPIVFQQGTTKLSVENNKTSITSDIGMQFFDPRTQNILFSTDYETHEFHLPSGVKSLNVQKASTERITSNATSDLNIKVDGRAIVRGNEGVFIMGKTIEFHMGGNMELKAENSIILNGSVMVSTTRLPSSSSGDQLGSGDWVRYKLCMCADGTLFKVQVTSQNMGCQISDNPCGNTH

Variants of: B1
Test: SGCB cell-surface expression functional score (HA stain, bin4 vs bin1, normalised to synonymous) (log10 ratio); higher = more cell-surface SGCB (functional)
Method in brief: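 Codon-saturation libraries of HA-tagged, YFP-fused human beta-sarcoglycan were lentivirally transduced at MOI <0.1 into HEK293 cells stably expressing alpha-, gamma- and delta-sarcoglycan. YFP-positive cells were sorted after 72 hours, grown 5–7 days, stained on ice with Alexa Fluor 647 anti-HA, fixed, sorted into four 5% intensity bins and amplicon-sequenced. The functional score is the log ratio of highest-bin to lowest-bin variant frequency, taken as the median over codons and duplicate transductions. Synonymous variants were scaled per section to mean 0, SD 0.5.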

SGCB cell-surface expression functional score (log10) of substitutions, site by site:
P143: Y -0.63; F -0.1; A -0.21; Q -0.7; S -0.44; H -0.41; M 0.69; N -0.09; I -0.11; V 0.07; K -0.28; T -0.41; L -0.54; G -0.72; D -0.9; R -0.34; E -0.73; C 0.07
I144: C -0.33; F -0.77; E -1.11; T -0.64; L -0.46; S -0.8; N -0.97; H -0.73; R -1.06; M -0.89; Y -1.1; A -0.98; K -1.07; P -1.22; D -0.57; Q -0.96; V 0.47; G -0.85; W -1.4
Q142: R -0.5; P -1.08; T -0.17; Y -0.3; V -0.05; W 0.21; S 0.05
Q147: M -0.04; S 0.16; C 0.5; P -0.68; G -0.41; I -0.06; V 0.26; H -0.39; A 0.19; T -0.47; L -0.21; F -0.65; E 0.33; W 0.33; R -0.06; D -0.27; N 0.29; K 0.26; Y -0.42
G149: P -1.17; A -0.43; K -0.63; T -0.75; Q -0.01; E -0.93; S -0.12; Y -0.57; I -0.64; W -0.54; H -0.28; R -0.54; L -0.34; C -0.49; F -0.45; D -0.25; M -0.18; V -0.88; N 0.19
V145: C -0.73
